US20120156198A1 (Hoffmann-La Roche, published 2012)
Where a chain is given by its changes, count along the chain named. Each block holds one binder with its values, some of them ahead of it.

What was measured:
[1] = target: T1, recombinant human IL-18Rα Fc chimera (R&D Systems, Cat. No. 816-LR) (human, UniProt Q13478 19-329); assay: SPR (BIACORE), 37°C, antibody captured, hIL-18Rα hFc chimera in solution
T1 construct: Bought protein; also called hIL-18Rα (hFc-chimera R&D-Systems 816-LR); recombinant human IL-18Rα-Fc fusion protein; not shown: human Fc of the commercial chimera
T1 sequence: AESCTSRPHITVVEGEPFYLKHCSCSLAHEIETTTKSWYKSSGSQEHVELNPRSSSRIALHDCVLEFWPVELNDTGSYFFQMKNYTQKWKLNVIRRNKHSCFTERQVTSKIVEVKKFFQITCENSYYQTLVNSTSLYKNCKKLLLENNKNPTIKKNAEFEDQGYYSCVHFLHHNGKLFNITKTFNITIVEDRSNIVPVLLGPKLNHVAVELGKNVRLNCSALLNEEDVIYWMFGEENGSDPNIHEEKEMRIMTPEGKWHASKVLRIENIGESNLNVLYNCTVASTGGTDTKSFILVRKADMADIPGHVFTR
Description: (§1) Coupling: amine coupling Buffer: 1×PBS (10×PBS, Ambion cat. AM9625), pH 7.4, 37° C. […] Association was measured by a hIL-18Rα-injection of 1.5 minutes at 37° C.; dissociation was measured by washing the chip surface with buffer for 10 minutes at 37° C. For calculation of apparent KD and other kinetic parameters the Langmuir 1:1 model was used.

[2] = target: T1, recombinant human IL-18Rα Fc chimera …; assay: SPR (BIACORE), 37°C, antibody captured, hIL-18Rα hFc chimera in solution; apparent KD, Langmuir 1:1
Description: as §1

[3] = target: T1, recombinant human IL-18Rα Fc chimera …; assay: ELISA, hFc fusion protein captured on anti-human Fc
Description: (§2) The test was performed on 384-well microtiter plates (MaxiSorp™, Thermo Scientific Nunc, DK, Cat. No. 464718) at RT. After each incubation step, plates were washed 3 times with PBST. At the beginning, plates were coated with 0.5 μg/ml goat anti-human IgG Fc fragment (Jackson 1 mm. Res., US, Cat. No. 109-006-170) for at least 2 hours (h). Thereafter the wells were blocked with PBS supplemented with 0.2% Tween®-20 and 2% BSA (Roche Diagnostics GmbH, DE) for 1 h. 0.2 μg/ml of recombinant human IL-18Rα-Fc fusion protein (R&D Systems, UK, Cat. No. 816-LR) was captured on plate for 1 h. For testing the binding of antibodies to other proteins of the IL-1 receptor family 0.2 μg/ml of the following recombinant human proteins conjugated to human Fc (hFc) were captured: [0194] rhIL-1RI/hFc (R&D Systems, UK, Cat. No. 269-1R) [0195] rhIL-1sRII/hFc (R&D Systems, UK, Cat. No. 263-2R) [0196] rhIL-1R3/hFc (R&D Systems, UK, Cat. No. 676-CP) [0197] rhIL-2Rα/hFc (R&D Systems, UK, Cat. No. 1020-RL) [0198] rhIL-7Rα/hFc (R&D Systems, UK, Cat. No. 306-IR) [0199] rhIL-15R/hFc (R&D Systems, UK, Cat. No. 147-IR) [0200] rhST-2/hFc (R&D Systems, UK, Cat. No. 523-ST)
(§3) After washing the plate, dilutions of purified antibodies in PBS with 0.05% BSA and 0.2% Tween®-20 were incubated with the receptor proteins for 1 h. Binding of antibodies was detected with 1:2000 diluted horseradish peroxidase (HRP)-conjugates of anti-mouse IgG (GE Healthcare, UK, Cat. No. NA9310V). After 1 h the plates were washed 6 times with PBST and developed with freshly prepared BM Blue® POD substrate solution (BM Blue®: 3,3″-5,5″-Tetramethylbenzidine, Roche Diagnostics GmbH, DE, Cat. No. 11484281001) for 30 minutes at RT. Absorbance was measured at 370 nm. The values were corrected for the control without antibody.

[4] = target: T2, rhIL-1RI/hFc (R&D Systems, Cat. No. 269-1R) (human, UniProt P14778 18-332); assay: as above
T2 construct: Bought; not shown: human Fc (hFc) of the commercial protein
T2 sequence (looked up): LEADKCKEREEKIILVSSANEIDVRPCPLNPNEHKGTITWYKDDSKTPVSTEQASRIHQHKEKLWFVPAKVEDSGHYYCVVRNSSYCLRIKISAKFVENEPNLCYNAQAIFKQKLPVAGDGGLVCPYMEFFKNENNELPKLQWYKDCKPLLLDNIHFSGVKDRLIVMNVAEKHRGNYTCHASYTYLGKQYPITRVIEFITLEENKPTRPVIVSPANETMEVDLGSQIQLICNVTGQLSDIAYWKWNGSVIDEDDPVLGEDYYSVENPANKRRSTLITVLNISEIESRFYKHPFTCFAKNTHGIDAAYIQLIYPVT
Description: as §2, §3

[5] = target: T3, rhIL-15R/hFc (R&D Systems, Cat. No. 147-IR) (human, UniProt Q13261 31-205); assay: as above
T3 construct: Bought; not shown: human Fc (hFc) of the commercial protein
Description: as §2, §3

[6] = target: T4, human IL-18Rα (IL-18R1) on human cells (KG-1 cells, PBMC, TH1-cultured T cells, whole blood) (human, UniProt Q13478 19-541); assay: cell-based or functional assay
T4 sequence: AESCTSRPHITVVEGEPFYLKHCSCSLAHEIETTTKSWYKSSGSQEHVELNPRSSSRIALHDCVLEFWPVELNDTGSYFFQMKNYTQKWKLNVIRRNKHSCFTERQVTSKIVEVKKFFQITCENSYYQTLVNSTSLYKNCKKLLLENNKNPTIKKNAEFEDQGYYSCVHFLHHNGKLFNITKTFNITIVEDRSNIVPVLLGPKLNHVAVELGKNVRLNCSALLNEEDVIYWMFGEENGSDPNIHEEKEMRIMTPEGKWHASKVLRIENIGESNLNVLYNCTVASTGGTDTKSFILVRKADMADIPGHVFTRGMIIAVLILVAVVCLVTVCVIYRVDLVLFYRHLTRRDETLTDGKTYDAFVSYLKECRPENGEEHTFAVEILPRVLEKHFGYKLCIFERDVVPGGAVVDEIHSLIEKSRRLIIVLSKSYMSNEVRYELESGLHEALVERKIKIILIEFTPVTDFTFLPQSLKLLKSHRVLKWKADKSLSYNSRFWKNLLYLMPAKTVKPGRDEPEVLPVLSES

T3 sequence (Q13261 31-205): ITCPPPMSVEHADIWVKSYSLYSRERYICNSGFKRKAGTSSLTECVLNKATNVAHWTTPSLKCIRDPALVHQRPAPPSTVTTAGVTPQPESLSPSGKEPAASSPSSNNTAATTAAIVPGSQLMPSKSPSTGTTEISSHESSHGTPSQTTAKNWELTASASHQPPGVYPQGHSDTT

- koff [1]: 0.0002 s⁻¹
- kon [1]: 8.2e+06 M⁻¹ s⁻¹
- t1/2 [1]: 0.967 h
- Kd [2]: 0.027 nM
- absorbance at 370 nm (corrected for the control without antibody) [3]: 2.43
- absorbance at 370 nm (corrected for the control without antibody) [4]: 0.01
- absorbance at 370 nm (corrected for the control without antibody) [5]: 0.04
- IL-18 induced IFNγ production in human PBMC, IC50 [ng/ml] [6]: 0.76 ng/mL
B1: Mab 1G12 (antibody, V domains shown)
VH: QVQLQQPGAELVKPGASVRMSCKTSDYTFTSNWMHWVKQRPGQGLEWIGTIDPSDSYTYYNQKFKGRATLTVDTSSSTAYMQLSSLTSEDSAVYYCTTSGDYDADRYFDVWGAGTTVTVSS
VL: DIVLTQSPASLGVSLGQRATISCRASKSVSTSGDSYMHWYQQKPGQSPKLLIYLASNLESGVPARFSGSGSGTDFTLNIHPVEEEDAATYYCQQSRELPLSFGAGTKLELK
notes: Monoclonal antibody from immunized NMRI mice; detected with anti-mouse IgG1-PE / anti-mouse IgG; also called F20.1G12; monoclonal antibody 1G12

- koff [1]: 0.00019 s⁻¹
- kon [1]: 7e+06 M⁻¹ s⁻¹
- t1/2 [1]: 1.03 h
- Kd [2]: 0.027 nM
- absorbance at 370 nm (corrected for the control without antibody) [3]: 2.56
- absorbance at 370 nm (corrected for the control without antibody) [4]: 0.02
- absorbance at 370 nm (corrected for the control without antibody) [5]: 0.19
- IL-18 induced IFNγ production in human PBMC, IC50 [ng/ml] [6]: 1.71 ng/mL
B2: Mab 2D11 (antibody, V domains shown)
VH: B1 VH with R19K, T24A, R67K, Q82H
VL: B1 VL
notes: Monoclonal antibody from immunized NMRI mice; detected with anti-mouse IgG1-PE / anti-mouse IgG; also called F20.2D11
